Test [1] concerns the target T1, human DR4 (Death Receptor 4), cell surface expressed on human tumor cell lines (human, UniProt O00220 24-468).
T1 construct: also called TNFRSF10A; TRAIL-R1
T1 sequence: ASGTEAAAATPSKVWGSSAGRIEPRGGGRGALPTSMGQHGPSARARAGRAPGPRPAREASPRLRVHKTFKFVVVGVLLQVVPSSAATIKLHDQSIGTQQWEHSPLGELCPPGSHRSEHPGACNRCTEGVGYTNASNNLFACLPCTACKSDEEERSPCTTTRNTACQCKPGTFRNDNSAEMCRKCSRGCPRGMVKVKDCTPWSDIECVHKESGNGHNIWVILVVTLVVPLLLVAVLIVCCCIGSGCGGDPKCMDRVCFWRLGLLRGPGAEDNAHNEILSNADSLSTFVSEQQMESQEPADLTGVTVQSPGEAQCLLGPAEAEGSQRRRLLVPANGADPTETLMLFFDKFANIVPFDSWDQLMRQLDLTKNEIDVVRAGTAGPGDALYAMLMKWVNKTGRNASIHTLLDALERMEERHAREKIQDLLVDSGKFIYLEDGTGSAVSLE
The experiment in a line: flow cytometry, DLD-1 cells, n = 2. A general note: A flow cytometer gives signals particle by particle.

Test [2] concerns the target T2, human FAPα (Fibroblast activation protein alpha), cell surface expressed (human, UniProt Q12884 1-760).
T2 construct: Endogenous on human lung fibroblasts and CAFs
T2 sequence: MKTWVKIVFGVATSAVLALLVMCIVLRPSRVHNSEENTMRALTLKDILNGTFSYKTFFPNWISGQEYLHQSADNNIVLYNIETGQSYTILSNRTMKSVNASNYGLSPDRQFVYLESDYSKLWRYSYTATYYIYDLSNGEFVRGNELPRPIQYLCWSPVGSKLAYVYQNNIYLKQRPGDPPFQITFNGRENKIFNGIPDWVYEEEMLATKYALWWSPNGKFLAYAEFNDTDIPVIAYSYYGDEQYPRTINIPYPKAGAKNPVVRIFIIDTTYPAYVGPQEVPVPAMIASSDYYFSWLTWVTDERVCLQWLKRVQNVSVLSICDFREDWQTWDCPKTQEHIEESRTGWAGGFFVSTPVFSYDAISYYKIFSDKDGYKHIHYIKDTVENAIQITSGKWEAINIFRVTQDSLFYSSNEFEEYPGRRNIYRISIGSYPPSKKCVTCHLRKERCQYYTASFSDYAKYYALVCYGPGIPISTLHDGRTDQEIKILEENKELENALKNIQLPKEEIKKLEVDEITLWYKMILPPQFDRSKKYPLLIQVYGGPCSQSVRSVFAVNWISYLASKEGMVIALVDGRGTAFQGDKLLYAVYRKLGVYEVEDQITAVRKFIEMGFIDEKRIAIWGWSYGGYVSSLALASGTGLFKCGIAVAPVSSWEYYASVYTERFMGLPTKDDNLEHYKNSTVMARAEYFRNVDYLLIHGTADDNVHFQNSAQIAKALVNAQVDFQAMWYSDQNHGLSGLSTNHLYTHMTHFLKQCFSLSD
The experiment in a line: flow cytometry, Expi293F cells expressing human FAPα, n = 1. The method, then: Binding of BisG1-FAPα-FERL/DR4-FERR, BisG1-FAPα-FEAL/b12-FEAR and IgG1-FAPα-FERL to FAPα of species commonly used for nonclinical toxicology studies was assessed by flow cytometry using Expi293F cells transiently expressing FAPα from different animal species. IgG1-b12 was included as negative control.
Expi293F cells expressing recombinant FAPα from various species (human, cynomolgus monkey, dog, pig, rat or mouse) were seeded (20,000 cells/well) in 96-Well round bottom plates (Greiner Bio-one, Cat #650101). Antibody dilutions were prepared using FACS buffer, consisting of PBS (Capricorn Scientific, Cat #PBS-10XA, diluted to 1×PBS in distilled water)+1% BSA (Roche, Cat #10735086001)+0.02% Sodium Azide (Bio-World, Cat #41920044-3). Plates were centrifuged, supernatant was removed, and cells were resuspended in 100 μL of antibody dilutions (concentration range 30-0.00017 μg/mL with three-fold serial dilutions using FACS buffer) of BisG1-FAPα-FERL/DR4-FERR, BisG1-FAPα-FEAL/b12-FEAR, IgG1-FAPα-FERL and IgG1-b12 and incubated for 30 min at 4° C. […] After 30 min incubation at 4° C., cells were washed with FACS buffer and resuspended in FACS buffer supplemented with TO-PRO-3 Iodide viability marker (Invitrogen, Cat #T3605, diluted 1:4,000). Antibody binding to viable cells (gMFI of PE on TO-PRO-3 negative cells) was analyzed by flow cytometry on a FACS Celesta and FACS_Diva software (first two experiments) or iQue® 3 and FlowJo software (last experiment). gMFI was determined and visualized using GraphPad Prism. Binding curves were analyzed using nonlinear regression analysis. The concentration (pg/mL) at which 50% of the maximal effect was observed (EC₅₀) was derived from the fitted curves.

Where a chain is given by its changes, count along the chain named.

B1: IgG1-DR4-FERR (antibody, V domains shown)
VH: QVQLQESGPGLVKPSGTLSLTCAVSGGSISSYSWWSWIRQPPGKGLEWIGELYHSGSTNYNPSLKSRVTISVDKSKNQFSLKLRSVTAADTAVYYCVRGVATIDYWGQGTLVTVSS
VL: QSALTQPPSASGSPGQSVTISCTGTSSDVGGYNFVSWYQQDPGKAPKLLIYEVTKRPSGVPDRFSGSKSGNTASLTVSGLQAEDEADYYCSSYAGSNNVMFGGGTKLTVLG
notes: Bivalent monoclonal IgG1 lambda
Regarding B1, the half-maximal effective concentration (EC50) (commonly the midpoint of the concentration-response curve) in test [1] stood at 0.22 µg/mL.

B2: BisG1-FAPα-FERL/DR4-FERR (bispecific antibody, human IgG1, kappa, lambda)
heavy 1: EVQLLESGGGLVQPGGSPRLSCEASGFTFSSYALSWVRQAPGKGLEWVSAISGSGGGRYYADSVKGRFTISRDNSKNTLFLQMNSLRAEDTAVYYCAKEGYSSSGTYWDHWGQGTLVTVSSASTKGPSVFPLAPSSKSTSGGTAALGCLVKDYFPEPVTVSWNSGALTSGVHTFPAVLQSSGLYSLSSVVTVPSSSLGTQTYICNVNHKPSNTKVDKRVEPKSCDKTHTCPPCPAPEFERGPSVFLFPPKPKDTLMISRTPEVTCVVVDVSHEDPEVKFNWYVDGVEVHNAKTKPREEQYNSTYRVVSVLTVLHQDWLNGKEYKCKVSNKALPAPIEKTISKAKGQPREPQVYTLPPSREEMTKNQVSLTCLVKGFYPSDIAVEWESNGQPENNYKTTPPVLDSDGSFLLYSKLTVDKSRWQQGNVFSCSVMHEALHNHYTQKSLSLSPG
light 1: AIQMTQSPSSVSASVGDRVTITCRASQGVSSWLAWYQQKPGRAPKLLIYVASTLQSGVPSRFSGSGSGTDFTLTINSLQPEDFATYYCQQANSFPPTFGQGTRLEMKRTVAAPSVFIFPPSDEQLKSGTASVVCLLNNFYPREAKVQWKVDNALQSGNSQESVTEQDSKDSTYSLSSTLTLSKADYEKHKVYACEVTHQGLSSPVTKSFNRGEC
heavy 2: QVQLQESGPGLVKPSGTLSLTCAVSGGSISSYSWWSWIRQPPGKGLEWIGELYHSGSTNYNPSLKSRVTISVDKSKNQFSLKLRSVTAADTAVYYCVRGVATIDYWGQGTLVTVSSASTKGPSVFPLAPSSKSTSGGTAALGCLVKDYFPEPVTVSWNSGALTSGVHTFPAVLQSSGLYSLSSVVTVPSSSLGTQTYICNVNHKPSNTKVDKRVEPKSCDKTHTCPPCPAPEFERGPSVFLFPPKPKDTLMISRTPEVTCVVVDVSHEDPEVKFNWYVDGVEVHNAKTKPREEQYNSTYRVVSVLTVLHQDWLNGKEYKCKVSNKALPAPIEKTISKAKGQPREPQVYTLPPSREEMTKNQVSLTCLVKGFYPSDIAVEWESNGQPENNYKTTPPVLDSDGSFFLYSRLTVDKSRWQQGNVFSCSVMHEALHNHYTQKSLSLSPG
light 2: QSALTQPPSASGSPGQSVTISCTGTSSDVGGYNFVSWYQQDPGKAPKLLIYEVTKRPSGVPDRFSGSKSGNTASLTVSGLQAEDEADYYCSSYAGSNNVMFGGGTKLTVLGQPKAAPSVTLFPPSSEELQANKATLVCLISDFYPGAVTVAWKADSSPVKAGVETTTPSKQSNNKYAASSYLSLTPEQWKSHRSYSCQVTHEGSTVEKTVAPTECS
notes: Human IgG1 bispecific made by controlled Fab-arm exchange of IgG1-FAPα-FERL and IgG1-DR4-FERR; monovalent for FAPα and for DR4; also called GEN1057
As to B2, the EC50 in test [1] turned out to be 0.73 µg/mL; in test [2], 0.18 µg/mL.

B3: IgG1-FAPα-FERL (antibody)
heavy: B2 heavy 1
light: B2 light 1
notes: Bivalent monoclonal IgG1 kappa
As to B3, in test [2], the EC50 amounted to 0.11 µg/mL.

B4: BisG1-b12-FERL/DR4-FERR (bispecific antibody, human IgG1, kappa, lambda)
heavy 1: QVQLVQSGAEVKKPGASVKVSCQASGYRFSNFVIHWVRQAPGQRFEWMGWINPYNGNKEFSAKFQDRVTFTADTSANTAYMELRSLRSADTAVYYCARVGPYSWDDSPQDNYYMDVWGKGTTVIVSSASTKGPSVFPLAPSSKSTSGGTAALGCLVKDYFPEPVTVSWNSGALTSGVHTFPAVLQSSGLYSLSSVVTVPSSSLGTQTYICNVNHKPSNTKVDKRVEPKSCDKTHTCPPCPAPEFERGPSVFLFPPKPKDTLMISRTPEVTCVVVDVSHEDPEVKFNWYVDGVEVHNAKTKPREEQYNSTYRVVSVLTVLHQDWLNGKEYKCKVSNKALPAPIEKTISKAKGQPREPQVYTLPPSREEMTKNQVSLTCLVKGFYPSDIAVEWESNGQPENNYKTTPPVLDSDGSFLLYSKLTVDKSRWQQGNVFSCSVMHEALHNHYTQKSLSLSPG
light 1: EIVLTQSPGTLSLSPGERATFSCRSSHSIRSRRVAWYQHKPGQAPRLVIHGVSNRASGISDRFSGSGSGTDFTLTITRVEPEDFALYYCQVYGASSYTFGQGTKLERKRTVAAPSVFIFPPSDEQLKSGTASVVCLLNNFYPREAKVQWKVDNALQSGNSQESVTEQDSKDSTYSLSSTLTLSKADYEKHKVYACEVTHQGLSSPVTKSFNRGEC
heavy 2: B2 heavy 2
light 2: B2 light 2
notes: Fab-arm exchange of IgG1-b12-FERL and IgG1-DR4-FERR; also called bsIgG1-ctrl-FERLxDR4-FERR
In turn, B4 gave an EC50 in test [1] of 0.68 µg/mL.

B5: BisG1-FAPα-FEAL/b12-FEAR (bispecific antibody, human IgG1, kappa)
heavy 1: B2 heavy 1 with R240G, D269A
light 1: B2 light 1
heavy 2: B4 heavy 1 with R246G, D275A, L415F, K419R
light 2: B4 light 1
notes: Fab-arm exchange of IgG1-FAPα-FEAL and IgG1-b12-FEAR
B5: a half-maximal response in test [2] (EC50) required 0.14 µg/mL.

Source of the values: patent US20250002610A1 (Genmab, published 2025).
